Values of other authors in paper PMC7761212.

Target: rice hemoglobin (Oryza sativa) (UniProt O04986)

Chain of rice hemoglobin (O04986 whole entry): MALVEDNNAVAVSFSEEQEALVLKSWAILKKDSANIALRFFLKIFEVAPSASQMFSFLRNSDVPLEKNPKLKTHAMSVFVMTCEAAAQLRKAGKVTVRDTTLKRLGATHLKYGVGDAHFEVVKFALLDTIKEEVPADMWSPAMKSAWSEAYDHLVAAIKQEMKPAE

In the case of rice hemoglobin (from UniProt O04986), the Kd is listed as 80 µM.
